Measured values from patent US20230054718A1 (HIFIBIO HK, published 2023).
Values joined by “and” are separate entries in the source; they are usually repeats but may differ in a detail not shown here. Equal entries are not always repeated.

Assays:
[1] = target: T1, recombinant human Galectin-9 (human, UniProt O00182-2 1-323, limits assumed); experiment: binding to recombinant human Gal-9, OD read-out over antibody concentration (nM); table under the curves
T1 construct: also called hGal9M; human Gal9

[2] = target: T2, Gal9 (Galectin-9) as used in Examples 3 to 5 (Homo sapiens (Human), UniProt O00182 1-323); experiment: CD44 blocking Assay: binding (%) of Gal9 to CD44 over antibody concentration; R2 printed 0,9790; no unit in the table, nM from the axis 'Antibody [nM]'
[3] = target: T2, Gal9 (Galectin-9) as used in Examples 3 …; experiment: Tim3 blocking Assay: binding (%) of Gal9 to TIM3 over antibody concentration; R2 printed 0,9956; no unit in the table, nM from the axis 'Antibody [nM]'
[4] = target: T3, recombinant mouse Galectin-9 (mouse, UniProt O08573-2 1-322, limits assumed); experiment: binding to recombinant mouse Gal-9, OD read-out over antibody concentration (nM); table under the curves
T3 construct: also called mGal9M; mouse Gal9

[5] = target: T2, Gal9 (Galectin-9) as used in Examples 3 …; experiment: CD44 blocking Assay: binding (%) of Gal9 to CD44 over antibody concentration; ambiguous fit marked '~', R2 printed 0,9183; no unit in the table, nM from the axis 'Antibody [nM]'
[6] = target: T2, Gal9 (Galectin-9) as used in Examples 3 …; experiment: Tim3 blocking Assay: binding (%) of Gal9 to TIM3 over antibody concentration; ambiguous fit marked '~', R2 printed 0,9819; no unit in the table, nM from the axis 'Antibody [nM]'
[7] = target: T2, Gal9 (Galectin-9) as used in Examples 3 …; experiment: CD44 blocking Assay: binding (%) of Gal9 to CD44 over antibody concentration; ambiguous fit marked '~', R2 printed 0,7386; no unit in the table, nM from the axis 'Antibody [nM]'
[8] = target: T2, Gal9 (Galectin-9) as used in Examples 3 …; experiment: Tim3 blocking Assay: binding (%) of Gal9 to TIM3 over antibody concentration; ambiguous fit marked '~', R2 printed 0,8078; no unit in the table, nM from the axis 'Antibody [nM]'
[9] = target: T2, Gal9 (Galectin-9) as used in Examples 3 …; experiment: CD44 blocking Assay: binding (%) of Gal9 to CD44 over antibody concentration; very poor fit, R2 printed 0,07344; no unit in the table, nM from the axis 'Antibody [nM]'
[10] = target: T2, Gal9 (Galectin-9) as used in Examples 3 …; experiment: Tim3 blocking Assay: binding (%) of Gal9 to TIM3 over antibody concentration; ambiguous fit marked '~', R2 printed 0,8826; no unit in the table, nM from the axis 'Antibody [nM]'
[11] = target: T2, Gal9 (Galectin-9) as used in Examples 3 …; experiment: Tim3 blocking Assay: binding (%) of Gal9 to TIM3 over antibody concentration; R2 printed 0,9756; no unit in the table, nM from the axis 'Antibody [nM]'
[12] = target: T1, recombinant human Galectin-9; experiment: BLI (Octet)
Description: (§1) Antibody binding affinity was measured using the commercially available Octet system from ForteBio (Creative Biolabs). According to the Creative Biolabs description, the Octet platform is based on bio-layer interferometry (BLI) technology that utilizes a whole set of system including instruments, biosensors, reagents and assay kits to support the evaluation of biomolecular interactions in 96- or 384-well microplates. Octet system uses Dip-and-Read assay mode to avoid the need of microfluidics, and enables the real-time, label-free analysis of affinity as well as kinetics. There are three biosensor-based assay orientations that can be used to explore antibody interaction: tandem blocking, premix blocking and classical sandwich. Compared to Biacore, Octet's dip-and-read assay allows longer analyte-binding steps and […] the rebinding of analyte to the ligand-coated sensors. Meanwhile, faster association time consumes less sample, which saves your precious proteins.

[13] = target: T3, recombinant mouse Galectin-9; experiment: BLI (Octet)
Description: as §1

[14] = target: T2, Gal9 (Galectin-9) as used in Examples 3 …; experiment: Tim3 blocking Assay: binding (%) of Gal9 to TIM3 over antibody concentration; R2 printed 0,9960; no unit in the table, nM from the axis 'Antibody [nM]'
[15] = target: T2, Gal9 (Galectin-9) as used in Examples 3 …; experiment: CD44 blocking Assay: binding (%) of Gal9 to CD44 over antibody concentration; ambiguous fit marked '~', R2 printed 0,9720; no unit in the table, nM from the axis 'Antibody [nM]'

T1 sequence (O00182 other isoform, or with tags, fused parts or gaps limits assumed): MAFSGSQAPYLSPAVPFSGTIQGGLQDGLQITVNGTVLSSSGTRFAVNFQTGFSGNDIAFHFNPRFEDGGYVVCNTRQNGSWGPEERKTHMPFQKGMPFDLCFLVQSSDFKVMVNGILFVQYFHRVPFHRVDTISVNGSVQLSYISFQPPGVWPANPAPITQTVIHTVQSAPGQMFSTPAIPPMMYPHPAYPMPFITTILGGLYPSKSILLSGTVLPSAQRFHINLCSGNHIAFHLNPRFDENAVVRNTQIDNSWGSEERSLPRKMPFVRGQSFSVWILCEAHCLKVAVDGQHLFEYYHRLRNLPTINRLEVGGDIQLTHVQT
T2 sequence (O00182 other isoform, or with tags, fused parts or gaps limits assumed): as above
T3 sequence (O08573 other isoform, or with tags, fused parts or gaps limits assumed): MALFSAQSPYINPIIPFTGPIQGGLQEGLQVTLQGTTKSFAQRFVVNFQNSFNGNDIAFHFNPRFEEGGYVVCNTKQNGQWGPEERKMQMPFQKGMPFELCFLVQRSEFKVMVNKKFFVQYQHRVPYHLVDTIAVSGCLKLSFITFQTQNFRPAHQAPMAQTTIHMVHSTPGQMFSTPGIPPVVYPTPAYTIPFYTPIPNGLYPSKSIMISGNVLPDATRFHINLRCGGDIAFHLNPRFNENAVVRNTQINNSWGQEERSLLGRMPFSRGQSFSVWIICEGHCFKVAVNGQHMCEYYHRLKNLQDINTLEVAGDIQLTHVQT

B1: HFB9-2hz14-hG1AA (antibody, human IgG1, V domains shown)
VH: EVQLVQSGAEVKKPGESLKISCKGSGYTFTEYTIHWVRQMPGKGLEWMGWFYPGSGSTEYSPSFQGQVTISADKSISTAYLQWSSLKASDTAMYYCERHGGYDGFDYWGQGTTVTVSS
VL: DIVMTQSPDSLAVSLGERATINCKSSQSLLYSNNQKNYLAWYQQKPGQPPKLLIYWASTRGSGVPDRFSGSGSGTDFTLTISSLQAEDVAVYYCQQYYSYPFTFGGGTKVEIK
notes: Humanized variant of HFB9-2; also called 2h14
Which EC50 [1] does the source give for B1 here?
The EC50 was 0.144 nM.

And the IC50 [2]?
The IC50 was 48.7 nM.

And the IC50 [3]?
The IC50 was 37.1 nM.

B2: HFB9-1hz2-hG1AA (antibody, human IgG1, V domains shown)
VH: QVQLVQSGAEVKKPGSSVKVSCKASGYTFTDYTIHWVRQAPGQGLEWMGWFYPGSHSIKYAQKFQGRVTITADKSTSTAYMELSSLRSEDTAVYFCTRHGGYDGFDYWGQGTLVTVSS
VL: DIVMTQSPDSLAVSLGERATINCKSSQSLFYSTNQKNYLAWYQQKPGQPPKLLIYWASTRESGVPDRFSGSGSGTDFTLTISSLQAEDVAVYYCQQYYYFPYTFGQGTKLEIK
notes: Humanized variant of HFB9-1
How did the EC50 [1] turn out when B2 was run?
Its EC50 is 0.15 nM.

What about the EC50 [4] of the same binder?
The EC50 was 0.828 nM.

What about the IC50 [5] of the same binder?
Its IC50 is about 63.1 nM.

And the IC50 [6]?
Its IC50 is about 59.8 nM.

B3: HFB9-1hz1-hG1AA (antibody, human IgG1, V domains shown)
VH: QVQLVQSGAEVKKPGASVKVSCKASGYTFTDYTIHWVRQAPGQGLEWMGWFYPGSHSIKYAQKFQGRVTMTADTSISTAYMELSRLRSDDTAVYFCTRHGGYDGFDYWGQGTLVTVSS
VL: DIVMTQSPDSLAVSLGERATINCKSSQSLFYSTNQKNYLAWYQQKPGQPPKLLIYWASTRESGVPDRFSGSGSGTDFTLTISSLQAEDVAVYYCQQYYYFPYTFGQGTKLEIK
notes: Humanized variant of HFB9-1
How did the EC50 [1] turn out when B3 was run?
The EC50 was 0.153 nM.

And the IC50 [7]?
The IC50 was about 255 nM.

What about the IC50 [8] of the same binder?
The IC50 was about 52.1 nM.

B4: HFB9-1hz3-hG1AA (antibody, human IgG1, V domains shown)
VH: QVQLVQSGAEVKKPGSSVKVSCKASGYTFTDYTIHWVRQAPGQGLEWMGWFYPGSHSIKYAQKFQGRVTITADKSTSTAYMELSSLRSEDTAVYYCTRHGGYDGFDYWGQGTLVTVSS
VL: DIVMTQSPDSLAVSLGERATINCKSSQSLFYSTNQKNYLAWYQQKPGQPPKLLIYWASTRESGVPDRFSGSGSGTDFTLTISSLQAEDVAVYYCQQYYYFPYTFGQGTKLEIK
notes: Humanized variant of HFB9-1
What does the source list for B4?
EC50 [1]: 0.142 nM; EC50 [4]: 0.98 nM; IC50 [9]: 0.0616 nM; IC50 [10]: ~183 nM

B5: HFB9-1hz4-hG1AA (antibody, V domains shown)
VH: QVQLVQSGAEVKKPGSSVKVSCKASGYTFTDYTIHWVRQAPGQGLEWMGWFYPGSHSIKYAQKFQGRVTITADKSTSTAYMELSSLRSEDTAVYYCARHGGYDGFDYWGQGTLVTVSS
VL: DIVMTQSPDSLAVSLGERATINCKSSQSLFYSTNQKNYLAWYQQKPGQPPKLLIYWASTRESGVPDRFSGSGSGTDFTLTISSLQAEDVAVYYCQQYYYFPYTFGQGTKLEIK
notes: humanized variant of HFB9-1
How did the EC50 [1] turn out when B5 was run?
Its EC50 is 1.84 nM.

B6: HFB9-2hz13-hG1AA (antibody, human IgG1, V domains shown)
VH: QVQLVQSGAEVKKPGASVKVSCKASGYTFTEYTIHWVRQAPGQGLEWMGWFYPGSGSTEYAQKFQGRVTMTADTSTSTVYMELSSLRSEDTAVYYCERHGGYDGFDYWGQGTTVTVSS
VL: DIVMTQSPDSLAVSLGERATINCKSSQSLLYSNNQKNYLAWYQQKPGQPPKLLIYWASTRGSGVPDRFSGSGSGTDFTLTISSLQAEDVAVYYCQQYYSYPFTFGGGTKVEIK
notes: Humanized variant of HFB9-2
How did the EC50 [1] turn out when B6 was run?
Its EC50 is 0.128 nM.

What about the EC50 [4] of the same binder?
Its EC50 is 0.496 nM.

And the IC50 [11]?
Its IC50 is 51.4 nM.

B7: HFB9-2hz11-hG1AA (antibody, IgG1, V domains shown)
VH: QVQLVQSGAEVKKPGASVKVSCKASGYTFTEYTIHWVRQAPGQGLEWMGWFYPGSGSTEYAQKFQGRVTMTADTSISTAYMELSRLRSDDTAVYFCERHGGYDGFDYWGQGTTVTVSS
VL: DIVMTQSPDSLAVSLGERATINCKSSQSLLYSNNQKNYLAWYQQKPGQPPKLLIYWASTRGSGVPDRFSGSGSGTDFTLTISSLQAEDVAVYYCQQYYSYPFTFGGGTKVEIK
notes: Humanized variant of HFB9-2; also called HFB9-2hz11-hG1AA MF20191024
B7 was tested. Which Kd [12] did it give?
The Kd was 4.84 nM and 1.96 nM.

And the koff [12]?
The koff was 0.000352 s⁻¹ and 0.000179 s⁻¹.

And the kon [12]?
Its kon is 72800 M⁻¹ s⁻¹ and 91400 M⁻¹ s⁻¹.

And the koff [13]?
The koff was 0.000462 s⁻¹ and 0.000606 s⁻¹.

What about the kon [13] of the same binder?
The kon was 402000 M⁻¹ s⁻¹ and 166000 M⁻¹ s⁻¹.

And the EC50 [1]?
Its EC50 is 0.117 nM.

And the EC50 [4]?
The EC50 was 0.533 nM.

And the IC50 [14]?
Its IC50 is 25.3 nM.

And the IC50 [15]?
Its IC50 is about 39.6 nM.

B8: HFB9-2hz12-hG1AA (antibody, V domains shown)
VH: QVQLVQSGAEVKKPGSSVKVSCKASGYTFTEYTIHWVRQAPGQGLEWMGWFYPGSGSAEYAQKFQGRVTITADESTSTAYMELSSLRSEDTAVYYCERHGGYDGFDYWGQGTTVTVSS
VL: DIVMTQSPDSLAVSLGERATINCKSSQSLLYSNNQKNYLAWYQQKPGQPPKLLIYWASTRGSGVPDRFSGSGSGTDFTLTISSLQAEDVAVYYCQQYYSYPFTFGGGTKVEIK
notes: humanized variant of HFB9-2
B8 was tested. Which EC50 [1] did it give?
Its EC50 is 0.57 nM.
